B1: sp¦Q9H2U2¦IPYR2_HUMAN (protein, UniProt Q9H2U2 33-334, looked up)
Inorganic pyrophosphatase 2, …: ALYHTEERGQPCSQNYRLFFKNVTGHYISPFHDIPLKVNSKEENGIPMKKARNDEYENLFNMIVEIPRWTNAKMEIATKEPMNPIKQYVKDGKLRYVANIFPYKGYIWNYGTLPQTWEDPHEKDKSTNCFGDNDPIDVCEIGSKILSCGEVIHVKILGILALIDEGETDWKLIAINANDPEASKFHDIDDVKKFKPGYLEATLNWFRLYKVPDGKPENQFAFNGEFKNKAFALEVIKSTHQCWKALLMKKCNGGAINCTNVQISDSPFRCTQEEARSLVESVSSSPNKESNEEEQVWHFLGK
B2: sp¦P22102¦PUR2_HUMAN (protein, UniProt P22102 2-1010, looked up)
Trifunctional purine …: AARVLIIGSGGREHTLAWKLAQSHHVKQVLVAPGNAGTACSEKISNTAISISDHTALAQFCKEKKIEFVVVGPEAPLAAGIVGNLRSAGVQCFGPTAEAAQLESSKRFAKEFMDRHGIPTAQWKAFTKPEEACSFILSADFPALVVKASGLAAGKGVIVAKSKEEACKAVQEIMQEKAFGAAGETIVIEELLDGEEVSCLCFTDGKTVAPMPPAQDHKRLLEGDGGPNTGGMGAYCPAPQVSNDLLLKIKDTVLQRTVDGMQQEGTPYTGILYAGIMLTKNGPKVLEFNCRFGDPECQVILPLLKSDLYEVIQSTLDGLLCTSLPVWLENHTALTVVMASKGYPGDYTKGVEITGFPEAQALGLEVFHAGTALKNGKVVTHGGRVLAVTAIRENLISALEEAKKGLAAIKFEGAIYRKDVGFRAIAFLQQPRSLTYKESGVDIAAGNMLVKKIQPLAKATSRSGCKVDLGGFAGLFDLKAAGFKDPLLASGTDGVGTKLKIAQLCNKHDTIGQDLVAMCVNDILAQGAEPLFFLDYFSCGKLDLSVTEAVVAGIAKACGKAGCALLGGETAEMPDMYPPGEYDLAGFAVGAMERDQKLPHLERITEGDVVVGIASSGLHSNGFSLVRKIVAKSSLQYSSPAPDGCGDQTLGDLLLTPTRIYSHSLLPVLRSGHVKAFAHITGGGLLENIPRVLPEKLGVDLDAQTWRIPRVFSWLQQEGHLSEEEMARTFNCGVGAVLVVSKEQTEQILRDIQQHKEEAWVIGSVVARAEGSPRVKVKNLIESMQINGSVLKNGSLTNHFSFEKKKARVAVLISGTGSNLQALIDSTREPNSSAQIDIVISNKAAVAGLDKAERAGIPTRVINHKLYKNRVEFDSAIDLVLEEFSIDIVCLAGFMRILSGPFVQKWNGKMLNIHPSLLPSFKGSNAHEQALETGVTVTGCTVHFVAEDVDAGQIILQEAVPVKRGDTVATLSERVKLAEHKIFPAALQLVASGTVQLGENGKICWVKEE
B3: sp¦P04844¦RPN2_HUMAN (protein, UniProt P04844 23-631, looked up)
Dolichyl-diphosphooligosacchar …: LTPTHYLTKHDVERLKASLDRPFTNLESAFYSIVGLSSLGAQVPDAKKACTYIRSNLDPSNVDSLFYAAQASQALSGCEISISNETKDLLLAAVSEDSSVTQIYHAVAALSGFGLPLASQEALSALTARLSKEETVLATVQALQTASHLSQQADLRSIVEEIEDLVARLDELGGVYLQFEEGLETTALFVAATYKLMDHVGTEPSIKEDQVIQLMNAIFSKKNFESLSEAFSVASAAAVLSHNRYHVPVVVVPEGSASDTHEQAILRLQVTNVLSQPLTQATVKLEHAKSVASRATVLQKTSFTPVGDVFELNFMNVKFSSGYYDFLVEVEGDNRYIANTVELRVKISTEVGITNVDLSTVDKDQSIAPKTTRVTYPAKAKGTFIADSHQNFALFFQLVDVNTGAELTPHQTFVRLHNQKTGQEVVFVAEPDNKNVYKFELDTSERKIEFDSASGTYTLYLIIGDATLKNPILWNVADVVIKFPEEEAPSTVLSQNLFTPKQEIQHLFREPEKRPPTVVSNTFTALILSPLLLLFALWIRIGANVSNFTFAPSTIIFHLGHAAMLGLMYVYWTQLNMFQTLKYLAILGSVTFLAGNRMLAQQAVKRTAH

In the assay the test system is human HL60 cells. The assay can be described thus: SWATH-MS proteomics, differential protein representation, akirin2 KO vs WT HL60 cells. Type of assay: cell-based. The settings on record: SWATH-MS, akirin2 KO vs WT HL60 cells; sheet "Under-represented in KO". The method, boiled down:
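Proteins from WT and akirin2 KO HL60 cells (n=3 biological replicates) were FASP trypsin-digested and analyzed by SWATH-MS DIA with variable windows against an IDA-derived spectral library. Identifications at 1% global FDR; quantities normalized to total area sums of all detected proteins.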
Take B1: the “Fold Change” value worked out at 0.76 and the “Log (Fold Change)” value is -0.1192.

Consider B2, for which the “Fold Change” value is 0.7577 and the “Log (Fold Change)” value is -0.1205.

Consider B3, for which the “Fold Change” value is reported as 0.7588 and the “Log (Fold Change)” value is on record as -0.1199.

For the origin of these results see PMC8298264, “Function of cofactor Akirin2 in the regulation of gene expression in model human neutrophil-like HL60 cells” (Bioscience Reports, 2021).
